Results taken from publication PMC12024163, “Competitive Ligand-Induced Recruitment of Coactivators to Specific PPARα/δ/γ Ligand-Binding Domains Revealed by Dual-Emission FRET and X-Ray Diffraction of Cocrystals” (Antioxidants, 2025).
No end group written: not given here. *: point of attachment. Biotin = O=C1N[C@H]2[C@H](CS[C@H]2CCCCC(=O)*)N1

T1: Human PPARα-LBD (amino acids 200–468), amino-terminal His-tagged (human, UniProt Q07869 200-468)
T1 construct: Form used in the FRET assays; detected through the His tag with a Tb cryptate anti-6×His antibody; Routine preparations hold intrinsic fatty acids; also called hPPARα-LBD; NR1C1; source: Rosetta (DE3) pLysS cells, pET28a, purified (TALON, HiTrap Q, Superdex 75); not shown: His tag, N-terminal, kept
T1 sequence (looked up): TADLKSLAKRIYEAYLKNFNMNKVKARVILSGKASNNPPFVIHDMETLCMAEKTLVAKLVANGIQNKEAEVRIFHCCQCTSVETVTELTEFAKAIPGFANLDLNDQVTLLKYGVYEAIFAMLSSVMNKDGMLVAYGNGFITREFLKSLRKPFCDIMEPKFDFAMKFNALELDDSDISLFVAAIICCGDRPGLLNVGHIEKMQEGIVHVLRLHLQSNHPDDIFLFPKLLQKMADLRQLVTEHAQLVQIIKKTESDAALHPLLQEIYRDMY

T2: Human PPARγ-LBD (amino acids 203–477 in isoform 1), amino-terminal His-tagged (human, UniProt P37231-2 203-477)
T2 construct: numbers count on: isoform 1; Form used in the FRET assays; mainly prepared as apo (unliganded) form; also called hPPARγ-LBD; NR1C3; source: Rosetta (DE3) pLysS cells, pET28a, purified (TALON, HiTrap Q, Superdex 75); not shown: His tag, N-terminal, kept
T2 sequence (looked up): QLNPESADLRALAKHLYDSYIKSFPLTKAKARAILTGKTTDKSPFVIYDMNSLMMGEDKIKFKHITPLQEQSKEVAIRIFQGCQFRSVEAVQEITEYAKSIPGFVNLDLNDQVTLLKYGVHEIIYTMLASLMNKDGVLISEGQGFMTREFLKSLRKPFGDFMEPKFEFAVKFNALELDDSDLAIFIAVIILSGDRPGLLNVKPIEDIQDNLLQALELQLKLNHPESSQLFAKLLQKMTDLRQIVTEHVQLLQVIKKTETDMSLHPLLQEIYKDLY

T3: Human PPARδ-LBD (amino acids 170–441), amino-terminal His-tagged (human, UniProt Q03181 170-441)
T3 construct: Form used in the FRET assays; also called hPPARδ-LBD; PPARβ; source: Rosetta (DE3) pLysS cells, pET28a, purified (TALON, HiTrap Q, Superdex 75); not shown: His tag, N-terminal, kept
T3 sequence (looked up): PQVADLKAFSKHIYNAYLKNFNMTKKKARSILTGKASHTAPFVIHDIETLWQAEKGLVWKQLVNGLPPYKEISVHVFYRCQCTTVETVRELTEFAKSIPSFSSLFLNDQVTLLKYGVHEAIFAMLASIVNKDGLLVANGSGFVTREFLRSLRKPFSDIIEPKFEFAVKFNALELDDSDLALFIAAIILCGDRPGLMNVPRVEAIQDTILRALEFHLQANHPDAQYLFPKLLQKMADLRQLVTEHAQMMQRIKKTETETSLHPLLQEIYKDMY

B1: NCoR2 corepressor peptide, biotin-labeled (AAs 2321–2341) (peptide)
peptide: Biotin-EHASTNMGLEAIIRKALMGKY
notes: NCoR2 (nuclear receptor corepressor 2, SMRT), human, AAs 2321–2341, LXXXIXXXL motif LEAIIRKAL; also called ULight-NCoR2; SMRT; source: synthetic peptide (GenScript)
B2: CBP coactivator peptide, biotin-labeled (AAs 56–80) (peptide)
peptide: Biotin-SGNLVPDAASKHKQLSELLRGGSGS
notes: also called ULight-CBP; source: synthetic peptide (GenScript)
B3: NCoR1 corepressor peptide, biotin-labeled (AAs 2255–2275) (peptide)
peptide: Biotin-ADPASNLGLEDIIRKALMGSF
notes: NCoR1 (nuclear receptor corepressor 1), human, AAs 2255–2275, LXXXIXXXL motif LEDIIRKAL; also called ULight-NCoR1; N-CoR ID2; source: synthetic peptide (GenScript)
B4: TRAP220 coactivator peptide, biotin-labeled (AAs 631–655) (peptide)
peptide: Biotin-PVSSMAGNTKNHPMLMNLLKDNPAQ
notes: thyroid hormone receptor-associated protein 220 (TRAP220), human, AAs 631–655, LXXLL motif LMNLL; also called ULight-TRAP220; ULight-TRAP; source: synthetic peptide (GenScript)
B5: SRC1 coactivator peptide, biotin-labeled (AAs 676–700) (peptide)
peptide: Biotin-CPSSHSSLTERHKILHRLLQEGSPS
notes: also called ULight-SRC1; SRC-1 M2; source: synthetic peptide (GenScript)
B6: PGC1α coactivator peptide, biotin-labeled (AAs 137–155) (peptide)
peptide: Biotin-EAEEPSLLKKLLLAPANTQ
notes: also called ULight-PGC1α; source: synthetic peptide (GenScript)

Assays:
Settings in all cases: both partners purified
[1] = biological target: T1, Human PPARα-LBD (amino acids 200–468), …; assay: FRET or BRET; single-emission TR-FRET (LANCE Ultra); His-tagged LBD (9.5 µL of 400 nM) with Tb cryptate anti-6×His antibody, biotin peptide (5 µL of 1 µM) with ULight-Streptavidin or FITC-Ahx peptide; buffer A (20 mM HEPES pH 7.4, 150 mM NaCl, 1 mM EDTA, 1 mM DTT, 0.005% Tween 20, 0.1% fatty acid-free BSA); room temperature, 2 h; without agonist (vehicle 1% DMSO)
[2] = biological target: T2, Human PPARγ-LBD (amino acids 203–477 in …); assay: as above
[3] = biological target: T3, Human PPARδ-LBD (amino acids 170–441), …; assay: FRET or BRET; dual-emission TR-FRET: ULight-corepressor peptide and FITC-coactivator peptide together in one well with the His-tagged LBD and Tb anti-6×His antibody; agonist titrated from vehicle (pemafibrate, seladelpar or pioglitazone); buffer A, room temperature
[4] = biological target: T1, Human PPARα-LBD (amino acids 200–468), …; assay: FRET or BRET; single-emission TR-FRET as a1, with the agonist titrated (pemafibrate for PPARα-LBD, seladelpar for PPARδ-LBD, pioglitazone for PPARγ-LBD); signal ratios normalised to 1% DMSO
[5] = biological target: T2, Human PPARγ-LBD (amino acids 203–477 in …); assay: as above
[6] = biological target: T3, Human PPARδ-LBD (amino acids 170–441), …; assay: as above
[7] = biological target: T1, Human PPARα-LBD (amino acids 200–468), …; assay: FRET or BRET; dual-emission TR-FRET: a FITC-coactivator peptide and a ULight-coactivator peptide together in one well with the His-tagged LBD and Tb anti-6×His antibody; agonist titrated (pemafibrate, seladelpar or pioglitazone); buffer A, room temperature
[8] = biological target: T2, Human PPARγ-LBD (amino acids 203–477 in …); assay: as above
[9] = biological target: T3, Human PPARδ-LBD (amino acids 170–441), …; assay: as above
[10] = biological target: T2, Human PPARγ-LBD (amino acids 203–477 in …); assay: FRET or BRET; dual-emission TR-FRET: ULight-corepressor peptide and FITC-coactivator peptide together in one well with the His-tagged LBD and Tb anti-6×His antibody; agonist titrated from vehicle (pemafibrate, seladelpar or pioglitazone); buffer A, room temperature

Binder | binding result [1] | binding result [2] | binding result [3] | EC50 of pemafibrate (the ligand is titrated) for recruitment of the peptide [4] | EC50 of pioglitazone (the ligand is titrated) for recruitment of the peptide [5] | EC50 of seladelpar (the ligand is titrated) for recruitment of the peptide [6] | maximal recruitment in dual-FRET with pemafibrate, that of FITC-CBP in the same well taken as 100 [7] | maximal recruitment in dual-FRET with pemafibrate, that of FITC-TRAP in the same well taken as 100 [7] | maximal recruitment in dual-FRET with pioglitazone, that of FITC-CBP in the same well taken as 100 [8] | maximal recruitment in dual-FRET with pioglitazone, that of FITC-TRAP in the same well taken as 100 [8] | maximal recruitment in dual-FRET with seladelpar, that of FITC-CBP in the same well taken as 100 [9] | maximal recruitment in dual-FRET with seladelpar, that of FITC-TRAP in the same well taken as 100 [9] | binding result [10]
B1 | binds | binds | binds | – | – | – | – | – | – | – | – | – | –
B2 | – | – | – | 60.9 nM | 637 nM | 33.2 nM | 431 FITC-CBP = 100 | 508 FITC-TRAP = 100 | 237 FITC-CBP = 100 | 295 FITC-TRAP = 100 | 508 FITC-CBP = 100 | 372 FITC-TRAP = 100 | –
B3 | binds | – | binds | – | – | – | – | – | – | – | – | – | binds
B4 | – | – | – | 130 nM | 1910 nM | 54.8 nM | 63.3 FITC-CBP = 100 | 75.8 FITC-TRAP = 100 | 107 FITC-CBP = 100 | 65.8 FITC-TRAP = 100 | 402 FITC-CBP = 100 | 108 FITC-TRAP = 100 | –
B5 | – | – | – | 87.8 nM | 2110 nM | 53.5 nM | 115 FITC-CBP = 100 | 77 FITC-TRAP = 100 | 52 FITC-CBP = 100 | 57.1 FITC-TRAP = 100 | 156 FITC-CBP = 100 | 55.5 FITC-TRAP = 100 | –
B6 | – | – | – | 82 nM | – | 48.1 nM | 108 FITC-CBP = 100 | 150 FITC-TRAP = 100 | – | – | 359 FITC-CBP = 100 | 313 FITC-TRAP = 100 | –
